The values below are quoted from earlier work in PMC5021969.

The data set addresses CXCL1 (Mus musculus) (UniProt P12850).

A word on the Kd: it is the concentration at which binding is half-saturated. Regarding CXCL1 (from UniProt P12850), the equilibrium dissociation constant (Kd) is 10 µM.
